Laboratory results as given in patent publication US10925971B2, “Methods of treating PRLR positive breast cancer” (Regeneron Pharmaceuticals, Inc., priority 2016, dated 2021).

Columns and labels:
[1] = system: Macaca fascicularis PRLR (mfPRLR.mmh; SEQ ID NO:403); test: Surface plasmon resonance (Biacore T200), antibody-capture format; type: binding; conditions: analyte mfPRLR.mmh
Method: (§1) Antibodies, expressed as human IgG1 Fc (i.e., “H1H” designations), were captured onto an anti-human Fc sensor surface (mAb-capture format), and soluble monomeric (hPRLR.mmh; SEQ ID NO:401, or Macaca fascicularis (mf) PRLR.mmh; SEQ ID NO:403) or dimeric (hPRLR.mFc; SEQ ID NO:402) PRLR protein was injected over the sensor surface. Measurements were conducted on a T200 Biacore instrument. Kinetic association (ka) and dissociation (kd) rate constants were determined by processing and fitting the data to a 1:1 binding model using Scrubber 2.0 curve fitting software.

[2] = biological target: T1, dimeric human PRLR (hPRLR.mFc; SEQ ID NO:402) (Homo sapiens, UniProt P16471); test: as above; type: binding; conditions: analyte hPRLR.mFc
T1 construct: dimeric (hPRLR.mFc)
T1 sequence (P16471 with tags, fused parts or gaps): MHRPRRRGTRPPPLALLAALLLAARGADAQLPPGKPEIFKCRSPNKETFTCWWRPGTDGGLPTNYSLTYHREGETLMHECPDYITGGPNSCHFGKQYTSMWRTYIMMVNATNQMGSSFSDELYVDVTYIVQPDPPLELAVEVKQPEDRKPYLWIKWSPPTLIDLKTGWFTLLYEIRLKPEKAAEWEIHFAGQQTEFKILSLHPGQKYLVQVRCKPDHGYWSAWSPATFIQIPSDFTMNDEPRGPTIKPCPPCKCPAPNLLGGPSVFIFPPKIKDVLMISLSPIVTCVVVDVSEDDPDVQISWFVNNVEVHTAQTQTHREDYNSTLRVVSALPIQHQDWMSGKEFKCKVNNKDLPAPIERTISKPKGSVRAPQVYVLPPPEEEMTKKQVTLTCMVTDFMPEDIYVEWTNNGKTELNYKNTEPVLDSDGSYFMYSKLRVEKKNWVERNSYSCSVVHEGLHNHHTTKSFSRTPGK
Method: as §1

[3] = biological target: T2, monomeric human PRLR (hPRLR.mmh; SEQ ID NO:401) (Homo sapiens, UniProt P16471); test: as above; type: binding; conditions: analyte hPRLR.mmh
T2 construct: soluble monomeric (hPRLR.mmh); mmh (myc-myc-hexahistidine) (C)
T2 sequence (P16471 with tags, fused parts or gaps): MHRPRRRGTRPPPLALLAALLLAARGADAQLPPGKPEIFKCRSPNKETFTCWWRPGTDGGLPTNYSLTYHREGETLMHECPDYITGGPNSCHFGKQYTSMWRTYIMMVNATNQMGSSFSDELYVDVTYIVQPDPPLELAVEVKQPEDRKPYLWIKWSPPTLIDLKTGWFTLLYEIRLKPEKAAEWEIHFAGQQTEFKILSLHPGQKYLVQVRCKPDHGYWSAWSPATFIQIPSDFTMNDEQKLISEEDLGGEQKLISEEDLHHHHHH
Method: as §1

HEK293 parental cells = test: FACS cell surface binding; parameters: species or system human
Method: (§2) The ability of anti-PRLR antibodies to selectively bind PRLR expressing cell lines was next determined. Human, monkey Macaca fascicularis, and mouse PRLR constructs with an HA tag were stably introduced into HEK293 cells via Lipofectamine 2000-mediated transfection methodology. Transfectants (HEK293/hPRLR, HEK293/mfPRLR and HEK293/mPRLR) were selected for at least 2 weeks in complete growth media plus G418.
(§3) Cell surface expression of PRLR on 293/hPRLR cells was assessed via FACS analysis. Briefly, 1×10^5 cells were incubated with 10 μg/ml of Control antibody I, or an isotype control for 30 min on ice in antibody dilution buffer. Following two washes with antibody dilution buffer, cells were incubated with 10 μg/ml of PE conjugated anti-human secondary antibodies for 30 min on ice. Following two additional washes, samples were run on a Hypercyt® cytometer and analyzed in ForeCyt™ (IntelliCyt, Albuquerque, N. Mex.). The mean fluorescence intensities (MFI) were expressed as fold change above isotype control levels (background). FACS binding confirmed that Control I selectively bound to 293/hPRLR expressing cells with MFIs that were 30 fold above background (isotype ctrl) levels and less than 2 fold binding on parental cells.
(§4) Next, the anti-PRLR antibodies were tested via FACS for selective binding to the engineered overexpressing PRLR HEK293 cell lines, as well as to non-expressing HEK293 cells and a native PRLR expressing cell line (T47D).

[4] = biological target: T3, human PRLR on HEK293/hPRLR cells (Homo sapiens, UniProt P16471); test: FACS cell surface binding
T3 construct: HA; expressed in transfected cells; host or cells: HEK293
T3 sequence (P16471 25-622): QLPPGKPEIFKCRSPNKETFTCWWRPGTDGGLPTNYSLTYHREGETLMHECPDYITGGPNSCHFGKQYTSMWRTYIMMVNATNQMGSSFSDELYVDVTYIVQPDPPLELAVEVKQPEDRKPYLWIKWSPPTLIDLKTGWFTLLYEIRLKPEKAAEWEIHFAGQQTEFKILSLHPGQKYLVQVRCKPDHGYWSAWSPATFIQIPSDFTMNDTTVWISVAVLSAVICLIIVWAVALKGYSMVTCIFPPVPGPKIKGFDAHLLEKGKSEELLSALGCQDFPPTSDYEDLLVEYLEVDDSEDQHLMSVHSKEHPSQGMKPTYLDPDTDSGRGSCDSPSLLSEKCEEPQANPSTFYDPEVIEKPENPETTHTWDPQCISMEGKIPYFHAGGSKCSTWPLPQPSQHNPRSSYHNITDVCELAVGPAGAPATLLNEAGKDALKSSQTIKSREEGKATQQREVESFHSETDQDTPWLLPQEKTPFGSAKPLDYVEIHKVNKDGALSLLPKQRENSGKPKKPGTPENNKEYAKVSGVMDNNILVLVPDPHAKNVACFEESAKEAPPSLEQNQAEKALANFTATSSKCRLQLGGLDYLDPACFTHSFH
Method: as §2, §3, §4

[5] = biological target: T4, monkey PRLR on HEK293/mfPRLR cells (Macaca fascicularis, UniProt A0A2K5WXK1); test: FACS cell surface binding
T4 construct: HA; expressed in transfected cells; host or cells: HEK293
T4 sequence (A0A2K5WXK1 25-619): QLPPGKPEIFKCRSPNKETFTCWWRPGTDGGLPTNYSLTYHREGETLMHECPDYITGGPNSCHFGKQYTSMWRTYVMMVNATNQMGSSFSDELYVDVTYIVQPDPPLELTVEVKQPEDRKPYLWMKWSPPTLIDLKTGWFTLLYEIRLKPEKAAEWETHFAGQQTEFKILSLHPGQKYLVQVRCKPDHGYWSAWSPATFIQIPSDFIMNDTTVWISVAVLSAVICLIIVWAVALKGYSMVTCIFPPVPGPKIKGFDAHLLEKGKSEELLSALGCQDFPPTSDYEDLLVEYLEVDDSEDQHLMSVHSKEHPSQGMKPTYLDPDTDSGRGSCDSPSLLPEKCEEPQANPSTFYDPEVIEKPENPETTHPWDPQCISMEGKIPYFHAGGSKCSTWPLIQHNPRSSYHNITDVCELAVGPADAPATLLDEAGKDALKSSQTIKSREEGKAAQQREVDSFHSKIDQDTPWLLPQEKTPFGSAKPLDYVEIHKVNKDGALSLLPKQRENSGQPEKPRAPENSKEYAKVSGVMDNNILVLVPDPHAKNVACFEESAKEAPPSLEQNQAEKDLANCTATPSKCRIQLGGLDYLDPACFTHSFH
Method: as §2, §3, §4

[6] = biological target: T5, mouse PRLR on HEK293/mPRLR cells (Mus musculus, UniProt Q08501); test: FACS cell surface binding
T5 construct: HA; expressed in transfected cells; host or cells: HEK293
T5 sequence (Q08501 20-608): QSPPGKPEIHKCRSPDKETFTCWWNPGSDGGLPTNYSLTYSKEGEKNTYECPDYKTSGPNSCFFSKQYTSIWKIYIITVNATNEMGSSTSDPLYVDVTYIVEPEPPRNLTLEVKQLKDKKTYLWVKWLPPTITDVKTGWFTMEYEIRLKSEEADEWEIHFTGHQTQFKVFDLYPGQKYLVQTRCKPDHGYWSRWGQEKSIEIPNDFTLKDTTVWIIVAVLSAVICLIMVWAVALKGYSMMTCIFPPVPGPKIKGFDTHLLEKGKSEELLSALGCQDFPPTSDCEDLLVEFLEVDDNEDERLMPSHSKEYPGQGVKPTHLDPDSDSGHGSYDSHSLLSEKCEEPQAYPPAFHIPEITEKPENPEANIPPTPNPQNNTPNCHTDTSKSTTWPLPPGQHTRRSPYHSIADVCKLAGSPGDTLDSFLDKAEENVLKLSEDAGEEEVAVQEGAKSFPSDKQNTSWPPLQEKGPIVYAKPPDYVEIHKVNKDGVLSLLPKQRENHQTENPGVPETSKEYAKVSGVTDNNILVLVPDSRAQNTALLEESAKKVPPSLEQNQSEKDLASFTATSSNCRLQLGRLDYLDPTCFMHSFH
Method: as §2, §3, §4

[7] = biological target: T6, native PRLR expressing T47D cells (Homo sapiens, UniProt P16471); test: FACS cell surface binding
T6 construct: a native PRLR expressing cell line (T47D); endogenous in cells; host or cells: T47D
T6 sequence (P16471 25-622): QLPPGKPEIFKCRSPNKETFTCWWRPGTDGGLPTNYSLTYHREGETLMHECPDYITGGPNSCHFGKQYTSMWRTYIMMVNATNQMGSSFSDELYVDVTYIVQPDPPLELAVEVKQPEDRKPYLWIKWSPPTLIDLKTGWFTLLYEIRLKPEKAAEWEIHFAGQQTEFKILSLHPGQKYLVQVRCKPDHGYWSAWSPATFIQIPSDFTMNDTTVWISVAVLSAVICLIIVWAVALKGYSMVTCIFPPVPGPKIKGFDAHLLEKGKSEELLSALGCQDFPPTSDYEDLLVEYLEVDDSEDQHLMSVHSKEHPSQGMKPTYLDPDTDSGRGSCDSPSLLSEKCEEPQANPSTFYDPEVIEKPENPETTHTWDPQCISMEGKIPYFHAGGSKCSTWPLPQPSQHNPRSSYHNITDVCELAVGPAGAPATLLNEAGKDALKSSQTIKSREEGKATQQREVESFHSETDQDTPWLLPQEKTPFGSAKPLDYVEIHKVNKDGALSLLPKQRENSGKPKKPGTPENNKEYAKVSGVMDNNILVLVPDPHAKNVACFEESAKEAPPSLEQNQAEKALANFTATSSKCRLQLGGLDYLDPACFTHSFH
Method: as §3, §4

Sequence of Macaca fascicularis PRLR (mfPRLR.mmh; SEQ ID NO:403) (as listed by the source): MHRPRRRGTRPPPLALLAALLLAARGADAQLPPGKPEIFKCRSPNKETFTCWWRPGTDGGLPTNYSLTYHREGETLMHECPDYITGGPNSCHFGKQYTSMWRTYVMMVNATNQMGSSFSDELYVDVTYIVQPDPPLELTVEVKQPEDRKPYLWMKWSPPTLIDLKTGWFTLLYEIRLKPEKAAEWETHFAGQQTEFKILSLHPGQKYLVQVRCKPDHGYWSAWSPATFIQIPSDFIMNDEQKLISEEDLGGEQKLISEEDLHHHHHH

Molecule	ka ([1]; 25° C.) [M/s]	kd ([1]; 25° C.) [s⁻¹]	ka ([1]; 37° C.) [M/s]	kd ([1]; 37° C.) [s⁻¹]	ka ([2]; 25° C.) [M/s]	kd ([2]; 25° C.) [s⁻¹]	ka ([2]; 37° C.) [M/s]	kd ([2]; 37° C.) [s⁻¹]	ka ([3]; 25° C.) [M/s]	kd ([3]; 25° C.) [s⁻¹]	ka ([3]; 37° C.) [M/s]	kd ([3]; 37° C.) [s⁻¹]	FACS Cell Binding (HEK293 parental cells) [Fold Above Background]	FACS Cell Binding [4] [Fold Above Background]	FACS Cell Binding [5] [Fold Above Background]	FACS Cell Binding [6] [Fold Above Background]	FACS Cell Binding [7] [Fold Above Background]
H1H6792P: fully human anti-PRLR antibody, human IgG1 Fc; HCVR/LCVR SEQ ID NOs 130/138 (antibody, V domains shown) VH: EVQLVESGGGLVQPGRSLRLSCAASGFTLDDHAVHWVRQAPGKGLEWVSGISWNSVYIDYADSVKGRFTIFRDNAKNSLYLQMNSLRAEDTAFYYCARDIEGARDYWGQGTLVTVSS VL: DIQMTQSPSSLSASVGDRVTITCRASQGIRNDLGWYQQKPGKAPKRLIYAASSLQSGVPSRFSGSGYGTEFTLTISSLQPEDFAPYYCLQHNSYPLTFGGGTKVEIK	236000	0.000983	305000	0.00286	303000	9.48e-05	499000	0.000176	324000	0.000794	435000	0.00229	1	37	28	3	37
H1H6793P: fully human anti-PRLR antibody, human IgG1 Fc; HCVR/LCVR SEQ ID NOs 146/154 (antibody, V domains shown) VH: EVQLVESGGGLVQPGGSLRLSCAASGFSFSIYAMSWFRQAPGKGLEWVSAINGRGDGTHYADSVKGRFTISRDNSKTTLYLQMSSLRAEDTAVYYCAKPVMSTNGFDIWGQGTMVTVSS VL: DIQMTQSPSTLSASVGDRVTITCRASQSISSWLAWYQLKPGKAPKLLIYKASNLESGVPSRFSGSGSGTEFTLTISSLQPDDFATYYCQQYNIYWTFGQGTKVEIK	177000	0.000393	233000	0.00107	229000	7.57e-05	410000	0.000142	235000	0.000332	339000	0.00102	2	2	32	2	43
H1H6800P: fully human anti-PRLR antibody, human IgG1 Fc; HCVR/LCVR SEQ ID NOs 194/202 (antibody, V domains shown) VH: EVQLVESGGGLVQPGRSLRLSCAASGFTFDGYAMHWVRQGPGKGLEWVSGISWYSDTLGYADSVKGRFTISRDNAKNSLYLQMNSLRTEDTAFYYCAKISSSGWAFDYWGQGTLVTVSS VL: EIVLTQSPGTLSLSPGERATLSCRASHSVSSAYLAWYQQKPGQTPRLLIYGTSSRATGIPDRFSGSGSGTDFTLTISRLEPEDFAVYYCQQYGSSPLFTFGPGTKVDIK	303000	0.00038	439000	0.00109	473000	8.69e-05	644000	0.000147	421000	0.000409	808000	0.00119	1	35	29	1	41
H1H6790P: fully human anti-PRLR antibody, human IgG1 Fc; HCVR/LCVR SEQ ID NOs 114/122 (antibody, V domains shown) VH: EVQLVESGGGLVQPGGSLRLSCAASGFTFSSYAMTWVRQAPGKGLEWVSAITGSVGNTYYADSVKGRFTISRDNSKNTLYLQMNSLGAEDTAEYYCAKGAGMTTNWYLDLWGRGTLVTVSS VL: DIVMTQSPDSLAVSLGARATINCKSSQSVLYSSNNQNYLTWYQQKPGQPPKLLIKWASTRESGVPDRFSGSGSGTDFTLTISSLQAEDVAVYYCQQYASSPYTFGQGTKLEIK	389000	0.000793	615000	0.00321	542000	0.000104	646000	0.000198	565000	0.000799	940000	0.00329	1	37	24	1	34
